Reference: article PMC10638403, “A closed translocation channel in the substrate-free AAA+ ClpXP protease diminishes rogue degradation” (Nature Communications, 2023)

B1: E. coli ClpP (enzyme)
chain: not shown
notes: ClpP peptidase, E. coli; models hold residues 2-193 of each subunit; also called ClpP14; double-ring ClpP tetradecamer; source: E. coli HMS174(DE3), pT7 plasmid, purified (Ni-NTA, size-exclusion chromatography); copies: 14
B2: full-length E. coli ClpX (enzyme)
chain: not shown
notes: ClpX, E. coli, full length, with a neutral K408E mutation; The methods tell two purifications for full-length ClpX (Ni-NTA, gel filtration and ion exchange; or ammonium sulfate, phenyl-Sepharose and mono-Q), so the His6 tag on this form is not certain; The N-terminal domains were not visible in the map; models typically hold residues 65-413; also called wild-type ClpX; ClpX6; source: E. coli …

What was measured:
full-length E. coli ClpX = target: B2; assay: cryo-EM structure; ClpX6 (5.8 µM), ClpP14 (1.9 µM), λO-Arc (20 µM dimer), ATPγS (2.5 mM) in 25 mM HEPES (pH 7.5), 100 mM KCl, 25 mM MgCl2; ClpX and ClpP incubated with ATPγS for 5 min at room temperature before λO-Arc was added; the substrate-free class was refined; details: both partners purified
[1] = target: the molecule itself; assay: cryo-EM structure; single-chain ClpX^∆N (3 µM pseudohexamer) and ClpP (1.5 µM tetradecamer) in 20 mM HEPES (pH 7.5), 100 mM KCl, 25 mM MgCl2, incubated with ATP (5 mM) for 15 min at room temperature; doubly capped and singly capped particles
[2] = target: the molecule itself; assay: cryo-EM structure; ClpX6 (5.8 µM), ClpP14 (1.9 µM), λO-Arc (20 µM dimer), ATPγS (2.5 mM) in 25 mM HEPES (pH 7.5), 100 mM KCl, 25 mM MgCl2; ClpX and ClpP incubated with ATPγS for 5 min at room temperature before λO-Arc was added; the substrate-free class was refined

Row | Binder | binding result (full-length E. coli ClpX) | stoichiometry N [1] | stoichiometry N [2]
1 | B1 | binds | 14 subunits | 
2 | B2 |  |  | 6 subunits
